Source: PMC9314330, “Structural basis of human TREX1 DNA degradation and autoimmune disease” (Nature Communications, 2022)

Assays:
[1] = molecular target: the molecule itself; assay: crystal structure; WT hTREX1 with 22-nt Y-form dsDNA (1:1.3 protein:DNA), 0.05 M Li2SO4, 0.1 M Bis-Tris pH 6.5, 25% PEG-3350, 18 °C; spacegroup P 1 21 1, 3 copies of hTREX1-DNA dimer in the asymmetric unit
[2] = molecular target: the molecule itself; assay: crystal structure; apo hTREX1 chimeras, hanging-drop vapor diffusion at 18 °C; spacegroup P 41 21 2, one hTREX1 dimer in the asymmetric unit
[3] = molecular target: T1, hTREX1 K160R (Homo sapiens, UniProt Q9NSU2 1-242, K160R); assay: thermal shift (thermofluor); 10 uM protein; 10 or 20 uM DNA; higher than WT; Tm about 63.2 C at 20 uM DNA (mean of source data, column order inferred); EMSA: 20 mM HEPES-NaOH pH 7.8, 75 mM KCl, 10 mM EDTA, 1 mM DTT, 4 C 30 min, 2% agarose; thermofluor: 20 mM Tris-HCl pH 7.5, 75 mM KCl, 1 mM TCEP, DNA preincubated at 4 C 30 min, 20-95 C ramp; crystals: 20 mM HEPES-KOH pH 7.5, 78 mM KCl, 1 mM TCEP over 0.05 M Li2SO4, …; details: protein: recombinant; tags: none (His-SUMO2 removed by SENP2); chain copies: 2; blunt; self-complementary strand
T1 sequence: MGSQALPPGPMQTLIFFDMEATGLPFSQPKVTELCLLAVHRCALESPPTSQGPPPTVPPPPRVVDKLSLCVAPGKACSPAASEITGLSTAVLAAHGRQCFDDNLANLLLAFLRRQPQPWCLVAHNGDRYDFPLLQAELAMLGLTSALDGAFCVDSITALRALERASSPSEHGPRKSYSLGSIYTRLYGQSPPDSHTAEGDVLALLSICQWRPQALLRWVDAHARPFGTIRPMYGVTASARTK

B1: human TREX1 (wildtype), N-terminal enzymatic domain, amino acids 1-242 (enzyme, UniProt Q9NSU2-3 1-242, looked up)
chain: MGSQALPPGPMQTLIFFDMEATGLPFSQPKVTELCLLAVHRCALESPPTSQGPPPTVPPPPRVVDKLSLCVAPGKACSPAASEITGLSTAVLAAHGRQCFDDNLANLLLAFLRRQPQPWCLVAHNGDRYDFPLLQAELAMLGLTSALDGAFCVDSITALKALERASSPSEHGPRKSYSLGSIYTRLYGQSPPDSHTAEGDVLALLSICQWRPQALLRWVDAHARPFGTIRPMYGVTASARTK
notes: human TREX1, C-terminal truncation, amino acids 1-242 of the 314-residue protein (catalytic domain 1-242, C-terminus 243-314); numbers count on: the 314-residue form; Crystallised with 22-nt Y-form dsDNA (2:2 complex); also called hTREX1; WT hTREX1; source: E. coli BL21-RIL DE3, purified (Ni-NTA, Heparin HP, Superdex S75)
Q: Does B1 bind [1]?
A: binds

B2: hTREX1 Chi 5.1 (A5T/P8H/P10H), amino acids 1-242 (enzyme, human, UniProt Q9NSU2-3 1-242, looked up)
chain: MGSQTLPHGHMQTLIFFDMEATGLPFSQPKVTELCLLAVHRCALESPPTSQGPPPTVPPPPRVVDKLSLCVAPGKACSPAASEITGLSTAVLAAHGRQCFDDNLANLLLAFLRRQPQPWCLVAHNGDRYDFPLLQAELAMLGLTSALDGAFCVDSITALKALERASSPSEHGPRKSYSLGSIYTRLYGQSPPDSHTAEGDVLALLSICQWRPQALLRWVDAHARPFGTIRPMYGVTASARTK
notes: human TREX1, amino acids 1-242 of the 314-residue protein, with three mouse-like mutations; numbers count on: the 314-residue form; also called human TREX1 Chi 5.1; source: E. coli BL21-RIL DE3, purified (Ni-NTA, Heparin HP, Superdex S75)
Q: Does B2 bind [2]?
A: binds

B3: 30-bp dsDNA (dsDNA)
DNA 1: GCTCGAGTCATGACGCGTCATGACTCGAGC
DNA 2: GCTCGAGTCATGACGCGTCATGACTCGAGC
Q: Does B3 bind [3]?
A: binds
